According to patent US20110262436A1, “TREATMENT METHOD” (Genentech, Inc., priority 2008, published 2011):
Entries after “also recorded” stand apart in the source; their conditions may differ.

Experiments:
[1] = tested on: c-met; assay: Binding to c-met in cynomolgus monkeys
[2] = PK study, single IV dose in cynomolgus monkeys; type: in vivo
Procedure: (§1) PK studies. PK studies were conducted in mice, rats, and cynomolgus monkeys.
Pharmacokinetic Assay for MetMAb in Cynomolgus Monkey Serum. A direct ELISA was developed to quantitate MetMAb in cynomolgus monkey serum. Plates were coated with a His-tagged c-met extracellular domain fragment, and diluted samples, standards, and controls were added to the coated plates. F(Ab′)2 fragmented, goat anti-human IgG Fc antibodies conjugated to HRP were added for detection. TMB peroxidase was stopped with […]. The plates were read at an absorbance of 450 nm and 620/630 nm.
The lower limit of quantification of the assay was 1.0 ng/ml and the upper limit of quantification was 32.0 ng/ml. The minimum dilution for neat cynomolgus monkey serum samples was 1/50, resulting in a minimum quantifiable concentration of 50 ng/ml, with an indefinite upper limit.
(§2) Mouse, Rat, and Cynomolgus Monkey PK data analysis. […] PK parameters were estimated using WinNonlin Enterprise Version 5.0.1 (Pharsight Corp., Mountain View, Calif.). The nominal dose administered for each group was used for modeling. Since a single concentration-time profile for mice was determined for each group, one estimate of each PK parameter was obtained and is reported, along with the standard error (SE) of the fit of each PK parameter. For rats and monkeys, PK parameters are reported as mean (+/−SD).
(§3) For IV administrations, a two-compartment elimination model with IV bolus input and first-order elimination was used to describe the observed data (WinNonlin Model 7). Concentrations were weighted using iterative reweighting (1/ŷ^2) and the Nelder-Mead minimization algorithm. The following equation was used to calculate concentration over time in Model 7: […]

[3] = tested on: HGF; assay: Phase I study: serum HGF levels by ELISA; type: in vivo, humans
Procedure: Pre- and post-dose serum is collected for evaluation of pharmacodynamic (PD) biomarkers that could be affected by inhibition of Met signaling. In addition, archival tissue is obtained for exploratory diagnostic assessments.
Serum HGF levels were determined using ELISA. […] For patient 12007, HGF expression increased to baseline levels in subsequent cycles. For patient 11009, HGF levels decreased by 70% post drug treatment and remained low for the duration of the study.

[4] = Phase I dose-escalation study: pharmacokinetics; type: in vivo, humans; details: patients
Procedure: Study design. There are two stages to this study, a dose-escalation stage and an expansion stage.
Study treatment. […] Dose levels tested in Phase I were: 1 mg/kg, 4 mg/kg, 10 mg/kg, 20 mg/kg, and 30 mg/kg.
MetMAb was administered as an IV infusion. […] The MetMAb infusion was slowed or interrupted for patients experiencing infusion-associated symptoms.
Pharmacokinetics of the study drug were determined by serially monitoring of serum samples for MetMAb throughout the study.

[5] = tested on: KP4 human pancreatic ductal cell carcinoma cells; assay: Dose fractionation study in KP4 xenograft mice; type: in vivo; details: total 2.5, 7.5 or 30 mg/kg as Q1W, Q2W or Q3W
Procedure: For example, a 30 mg/kg total dose was given as 10 mg/kg Q1W, 15 mg/kg Q2W, or 30 mg/kg Q3W.
(§4) In all cases, tumors were measured with calipers throughout the study.

[6] = PK studies in mice, rats, and cynomolgus monkeys (stated across species); type: in vivo; details: cynomolgus monkeys
Procedure: as §1, §2, §3

[7] = tested on: KP4 human pancreatic ductal cell carcinoma cells; assay: Dose response study in KP4 xenograft mice; type: in vivo; details: from Day 21 effect vs. dose profile
Procedure: In a dose response study, female nude (nu/nu) mice (age 6-8 weeks) were inoculated subcutaneously (SC) with 5×10^6 KP4 human pancreatic ductal cell carcinoma cells.
as §4

[8] = tested on: KP4 xenograft; assay: PK/PD model of anti-tumor efficacy in KP4 xenograft mice (MTC); details: individual MTC values (n=177) KP4 mice
Procedure: PK parameter estimates were used as a forcing function to model the pharmacodynamic (PD) endpoint of tumor progression (PD) in KP4 xenograft mice.
Tumor measurements were taken via with calipers, and mice entered the study with tumor volumes of approximately 200 mm^3. Study data up to 21 days from a total of 177 KP4 mice were used in the modeling analysis. Tumor volumes (mm^3) were converted to mass (mg) assuming 1 mm^3=1 mg tumor tissue. A mixed effects PK/pharmacodynamic (PD) model describing anti-tumor efficacy in KP4 xenograft mice was fit to the tumor data using NONMEM software (Double Precision, version V, level 1.0 UCSF, San Francisco Calif.).
MTC is calculated from the differential equation describing tumor mass where (dTM(t)/dt=0)

[9] = Repeat-dose safety study in cynomolgus monkeys; type: in vivo; details: GLP toxicology study
Excerpt: Repeat-dose safety study.

Substance: MetMAb: recombinant, humanized, monovalent (one-armed) monoclonal antibody directed against human c-met
- Binding to c-met [1]: binds to c-met
- Terminal Half-Life ([2]; Cynomolgus monkey): 97.2 h
- V1 ([2]; Cynomolgus monkey): 0.0338 L/kg
- Vss ([2]; Cynomolgus monkey): 0.0703 L/kg
- CL ([2]; Cynomolgus monkey (n = 4), linear dose range): 13.4 mL/day/kg
- Change in serum HGF expression, two patients with highest baseline HGF ([3]; 24 h post drug treatment): significant decrease; also recorded: significantly decreased
- Change in serum HGF expression with MetMAb treatment, in general ([3]; Phase I patients): little or no increase
- Decrease of serum HGF levels post drug treatment, patient 11009 ([3]; remained low for the duration of the study): 70%
- Inter-individual variability of serum concentrations at each dose level [4]: less than 30%
- Clearance compared to the other dose groups ([4]; 1 mg/kg dose): slightly faster clearance
- Half-life ([4]; IV Q3W): approximately 10 days
- PK linearity ([4]; dose range 4 to 30 mg/kg): linear pharmacokinetics
- Efficacy at the same dose level with different dose regimens [5]: similar
- Beta half-life [6]: 96 to 120 h
- Median efficacious dose (representative) [7]: 7.5 mg/kg
- Minimal efficacious dose (representative) [7]: 2.5 mg/kg
- MTC, 90% of values [8]: below 110 μg/mL
- Median MTC (Minimum Tumorostatic Concentration) [8]: approximately 15 μg/mL
- Highest non-severely toxic dose [9]: 100 mg/kg
